Patent US20220054630A1

Experiments:
sE2 wild-type = sE2 wild-type (UniProt P27958); experiment: BLI
Wild-type = Wild-type (UniProt P27958); experiment: BLI

Row | Substance | Kd (sE2 wild-type) [nM] | Kd (Wild-type) [nM]
1 | CBH-4D | 8.4 | –
2 | CBH-4G | 15 | 15
3 | HC33.1 | 9.5 | –
4 | HC84.1 | 30 | –
5 | HC84.26.WH.5DL | 4.3 | 4.3
6 | HCV1 | 42 | –
7 | HEPC74 | 5.1 | –
